Laboratory results: patent publication US20250352661A1 (MYTHIC THERAPEUTICS, published 2025)
Changes are numbered by the printed parent chain. Names and notes keep the numbering of the source.

T1: LRRC15 on the surface of LRRC15+ cells (SAOS-2, U87MG) (UniProt Q8TF66 22-581, limits assumed)
T1 sequence (looked up): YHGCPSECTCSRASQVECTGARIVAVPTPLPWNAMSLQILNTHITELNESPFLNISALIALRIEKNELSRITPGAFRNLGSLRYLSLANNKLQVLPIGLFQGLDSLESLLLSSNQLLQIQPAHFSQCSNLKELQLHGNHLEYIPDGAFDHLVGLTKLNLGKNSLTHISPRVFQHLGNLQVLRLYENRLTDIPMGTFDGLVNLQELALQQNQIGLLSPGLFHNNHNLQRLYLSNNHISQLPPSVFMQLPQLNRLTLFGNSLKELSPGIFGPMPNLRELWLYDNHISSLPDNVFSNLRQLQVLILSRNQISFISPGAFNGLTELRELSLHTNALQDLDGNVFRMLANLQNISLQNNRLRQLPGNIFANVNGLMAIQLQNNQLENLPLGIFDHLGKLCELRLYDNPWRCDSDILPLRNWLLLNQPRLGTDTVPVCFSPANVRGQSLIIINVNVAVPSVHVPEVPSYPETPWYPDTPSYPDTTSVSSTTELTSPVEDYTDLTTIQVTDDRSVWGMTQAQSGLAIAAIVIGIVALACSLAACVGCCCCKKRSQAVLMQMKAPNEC

T2: Human LRRC15 Protein, His Tag (Acro Biosystems) (human, UniProt Q8TF66 22-538, limits assumed)
T2 construct: Bought protein with His tag
T2 sequence (looked up): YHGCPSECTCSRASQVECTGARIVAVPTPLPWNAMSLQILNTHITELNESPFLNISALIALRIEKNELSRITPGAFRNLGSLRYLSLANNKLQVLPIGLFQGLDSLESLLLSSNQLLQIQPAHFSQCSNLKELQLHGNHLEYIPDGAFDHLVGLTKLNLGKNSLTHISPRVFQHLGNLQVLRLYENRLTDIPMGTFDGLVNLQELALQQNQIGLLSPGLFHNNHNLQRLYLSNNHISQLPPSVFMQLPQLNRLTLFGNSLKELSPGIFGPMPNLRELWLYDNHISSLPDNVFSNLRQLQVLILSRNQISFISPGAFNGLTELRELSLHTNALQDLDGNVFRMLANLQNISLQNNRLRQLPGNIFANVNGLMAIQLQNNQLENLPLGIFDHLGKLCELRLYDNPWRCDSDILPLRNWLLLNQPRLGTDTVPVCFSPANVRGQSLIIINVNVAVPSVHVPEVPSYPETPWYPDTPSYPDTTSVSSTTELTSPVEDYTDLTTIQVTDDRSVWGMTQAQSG

T3: Human LRRC15 Protein, His Tag (Acro Biosystems) (human, UniProt Q8TF66 22-538, limits assumed)
T3 sequence (looked up): T2 sequence (looked up)

B1: MYT8415 (antibody, V domains shown)
VH: EVQLVESGGGLVQPGGSLRLSCTASGLDFRRTNYICWVRQAPGKGLEWVGCIYIADVVHYYASWAKGRFTFSRDTSKNTVYLQMNSLRAEDTAVYYCARGADGGFVYGMDLWGQGTLVTVSS
VL: EIVMTQSPSTLSASVGDRVIITCQASQSIGNYLSWYQQKPGKAPKRLIYSASTLPSGVPSRFSGSGSGAEFTLTISSLQPDDFATYYCQNNHWLAGYGHPFGQGTKLTVL
B2: MYT9776 (antibody, V domains shown)
VH: EVQLVESGGGLVQPGGSLRLSCTASGFSFSGHYWICWVRQAPGKGLEWVGCIHGGSHDITYYASWAKGRFTISRDTSKNTVYLQKTSLRAEDTAVYYCASDTSYTAYGNFYFNLWGQGTLVTVSS
VL: EIVMTQSPSPLSASVGDRVIITCQSSQSVLNNNWLAWYQQKPGKAPKLLIYDASSLASGVPSRFSGSGSGAEFTLTISSLQPDDFATYYCQGEFSCGSADCNAFGQGTKLEIK
B3: MYT3315 (antibody, V domains shown)
VH: EVQLVESGGGLVQPGGSLRLSCAVSGFSLTSYGVHWVRQATGKGLEWLGVIWAGGSTNYNSALMSRLTISKENAKSSVYLQMNSLRAGDTAMYYCATHMITEDYYGMDYWGQGTTVTVSS
VL: DIVMTQSPDSLAVSLGERATINCKSSQSLLNSRTRKNYLAWYQQKPGQSPKLLIYWASTRHSGVPDRFSGSGSGTDFTLTISSLQAEDVAVYYCKQSYNLPTFGGGTKVEIK
B4: MYT6143 (antibody, V domains shown)
VH: QEQLEESGGDLVKPGASLTLTCTASGLDFRRTNYICWVRQAPGKGLEWIGCIYIADVVHYYASWAKGRFTFSKTSSTTVTLQMTSLTAADTATYFCARGADGGFVYGMDLWGPGTLVTVSS
VL: DVVMTQTPASVSEPVGGTVTIKCQASQSIGNYLSWYQQKPGQRPKRLIYSASTLPSGVPSRFKGAGSGTEFTLTISDLESADAATYYCQNNHWLAGYGHPFGGGTEVVVK
notes: rabbit 15G7 VL Y92H; chimeric, human constant regions
B5: MYT6138 (antibody, V domains shown)
VH: B4 VH
VL: B4 VL with P55H, H92Y
notes: rabbit 15G7 VL P55H; chimeric, human constant regions
B6: MYT6147 (antibody, V domains shown)
VH: B4 VH
VL: B4 VL with H92Y, G96H
notes: rabbit 15G7 VL G96H; chimeric, human constant regions
B7: MYT6148 (antibody, V domains shown)
VH: B4 VH
VL: B4 VL with H92Y, Y97H
notes: rabbit 15G7 VL Y97H; chimeric, human constant regions
B8: MYT6142 (antibody, V domains shown)
VH: B4 VH
VL: B4 VL with N91H, H92Y
notes: rabbit 15G7 VL N91H; chimeric, human constant regions
B9: MYT6146 (antibody, V domains shown)
VH: B4 VH
VL: B4 VL with H92Y, A95H
notes: rabbit 15G7 VL A95H; chimeric, human constant regions
B10: MYT6140 (antibody, V domains shown)
VH: B4 VH
VL: B4 VL with Q89H, H92Y
notes: rabbit 15G7 VL Q89H; chimeric, human constant regions
B11: MYT6137 (antibody, V domains shown)
VH: B4 VH
VL: B4 VL with L54H, H92Y
notes: rabbit 15G7 VL L54H; chimeric, human constant regions
B12: MYT6149 (antibody, V domains shown)
VH: B4 VH
VL: B4 VL with H92Y, G98H
notes: rabbit 15G7 VL G98H; chimeric, human constant regions
B13: MYT6134 (antibody, V domains shown)
VH: B4 VH
VL: B4 VL with A51H, H92Y
notes: rabbit 15G7 VL A51H; chimeric, human constant regions
B14: MYT6136 (antibody, V domains shown)
VH: B4 VH
VL: B4 VL with T53H, H92Y
notes: rabbit 15G7 VL T53H; chimeric, human constant regions
B15: MYT6151 (antibody, V domains shown)
VH: B4 VH
VL: B4 VL with H92Y, P100H
notes: rabbit 15G7 VL P100H; chimeric, human constant regions
B16: MYT6150 (antibody, V domains shown)
VH: B4 VH
VL: B4 VL with H92Y, H99A
notes: rabbit 15G7 VL H99A; chimeric, human constant regions
B17: MYT6139 (antibody, V domains shown)
VH: B4 VH
VL: B4 VL with S56H, H92Y
notes: rabbit 15G7 VL S56H; chimeric, human constant regions
B18: MYT6141 (antibody, V domains shown)
VH: B4 VH
VL: B4 VL with N90H, H92Y
notes: rabbit 15G7 VL N90H; chimeric, human constant regions
B19: MYT6145 (antibody, V domains shown)
VH: B4 VH
VL: B4 VL with H92Y, L94H
notes: rabbit 15G7 VL L94H; chimeric, human constant regions
B20: MYT6144 (antibody, V domains shown)
VH: B4 VH
VL: B4 VL with H92Y, W93H
notes: rabbit 15G7 VL W93H; chimeric, human constant regions
B21: MYT6135 (antibody, V domains shown)
VH: B4 VH
VL: B4 VL with S52H, H92Y
notes: rabbit 15G7 VL S52H; chimeric, human constant regions
B22: MYT5712 (antibody, V domains shown)
VH: B4 VH
VL: B4 VL with H92Y
notes: chimeric antibody (rabbit variable domains, human constant regions); also called 15G7; chimeric 15G7 RabMAb
B23: MYT6085 (antibody, V domains shown)
VH: B4 VH with R31H
VL: B4 VL with H92Y
notes: chimeric rabbit 15G7 variant (rabbit variable domains, human constant regions); also called 15G7 VH R31H
B24: MYT6084 (antibody, V domains shown)
VH: B4 VH with R30H
VL: B4 VL with H92Y
notes: chimeric rabbit 15G7 variant (rabbit variable domains, human constant regions); also called 15G7 VH R30H
B25: MYT6086 (antibody, V domains shown)
VH: B4 VH with T32H
VL: B4 VL with H92Y
notes: chimeric rabbit 15G7 variant (rabbit variable domains, human constant regions); also called 15G7 VH T32H

Biological target: T1, LRRC15 on the surface of LRRC15+ cells …
Experiment: cell-based or functional assay

| Internalization in U87MG cells (10 nM, 24 hours), FOB = fold over background (IgG control) | Internalization in U87MG cells (10 nM, 24 hours), FOS = fold over samrotamab [fold over samrotamab] | Binder |
| --- | --- | --- |
| 2.53 fold over background (IgG control) | 1.79 | B1 |
| 2.69 fold over background (IgG control) | 1.97 | B2 |
| 2.57 fold over background (IgG control) | 1.83 | B3 |

Biological target: T2, Human LRRC15 Protein, His Tag (Acro …)
Experiment: BLI; dissociation pH 7.4 black, pH 5.4 grey [D00008 FIG. 1F]
Text: (§1) For each individual plot, antigen binding proteins were captured on anti-human Fc biosensors and associated with LRRC15 at pH 7.4. Dissociation was at pH 7.4 (black) or pH 5.4 (grey). Major X-axis ticks=100 seconds, with left dashed vertical line=0 seconds. Major Y-axis ticks=0.5 nm and octet plots are shown MYT5712 and MYT6080-MYT6121.
(§2) Multiple LRRC15-binding monoclonal antibodies have been described in the literature and can be used as a template for engineering pH-dependent binding. We selected discovery RabMAb clone 15G7 (rabbit VH SEQ ID NO: 378, rabbit VL SEQ ID NO: 451; humanized VH SEQ ID NO: 382, humanized VL SEQ ID NO: 455) as a LRRC15-binding monoclonal antibody for pH-engineering via histidine scanning. […] To generate pH-dependent sequence variants, individual amino acid residues within the heavy chain CDRs were systematically substituted with a histidine (or alanine if H was already present in a given position; e.g., MYT6099), one at a time (rabbit, MYT6080-6121). Desirable mutations were transferred to a humanized framework (humanized, MYT 8387-8411). After allowing for four days of protein expression, cell culture supernatants were collected, quantified by SDS-PAGE analysis, and the pH dependence of the variant was evaluated using biolayer interferometry (BLI) on an Octet RED 96e instrument. Briefly, cell culture supernatants were diluted based on qualitative expression level of the variant determined by visual examination of SDS-PAGE gels, 5 μL of cell culture supernatant was diluted into 195 μL of 1×PBST, pH 7.4 for high expressors, 25 μL of cell culture supernatant was diluted into 175 μL of 1×PBST, pH 7.4 for medium expressors and 100 μL of cell culture supernatant was diluted into 100 μL of 1×PBST, pH 7.4 for low expressors for loading onto the sensor tips.

| binding result | Binder |
| --- | --- |
| binds | B4 |
| binds | B5 |
| binds | B6 |
| binds | B7 |
| binds | B8 |
| binds | B9 |
| binds | B10 |
| binds | B11 |
| binds | B12 |
| binds | B13 |
| binds | B14 |
| binds | B15 |
| binds | B16 |
| binds | B17 |
| no binding (tested: 50 nM LRRC15) | B18 |
| no binding (tested: 50 nM LRRC15) | B19 |
| binds | B20 |
| binds | B21 |

Biological target: T3, Human LRRC15 Protein, His Tag (Acro …)
Experiment: BLI; dissociation pH 7.4 black, pH 5.4 grey [1/2); D00006 FIG. 1E (1/2]
Text: as §1, §2

| binding result | Binder |
| --- | --- |
| binds | B22 |
| binds | B23 |
| binds | B24 |
| binds | B25 |
